# Reference: article PMC5942852 (2018)
# Changes are numbered by the printed parent chain. Several values for one entry are separate records, joined by “and”; a condition that tells them apart may be missing. Identical values can stand only once.
# B1: L14_7 (antibody, V domains shown)
# VH: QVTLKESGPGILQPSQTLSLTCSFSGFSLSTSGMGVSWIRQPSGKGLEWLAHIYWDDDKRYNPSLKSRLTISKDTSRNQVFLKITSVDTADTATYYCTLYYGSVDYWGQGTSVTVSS
# VL: DIQMTQSPASLSASVGETVTITCRSSRDIKDYITWYQQKQGKSPQLLVYNAKTLAEGVPSRFSGSGSGTEFSLKISSLQPEDFGNYYCQHHYGTRTFGGGTRLEIK
# B2: WT 2J88 antibody (antibody, V domains shown)
# VH: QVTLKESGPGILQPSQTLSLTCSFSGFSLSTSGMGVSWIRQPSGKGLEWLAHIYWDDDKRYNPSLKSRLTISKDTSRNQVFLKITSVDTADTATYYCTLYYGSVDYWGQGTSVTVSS
# VL: B1 VL with S25A, R27E, D28N, K30Y, D31S, I33L, E70Q
# Key:
# [1] = target: T1, Bee Hyaluronidase (bee); test: SPR; XPR repeat 1
# T1 chain: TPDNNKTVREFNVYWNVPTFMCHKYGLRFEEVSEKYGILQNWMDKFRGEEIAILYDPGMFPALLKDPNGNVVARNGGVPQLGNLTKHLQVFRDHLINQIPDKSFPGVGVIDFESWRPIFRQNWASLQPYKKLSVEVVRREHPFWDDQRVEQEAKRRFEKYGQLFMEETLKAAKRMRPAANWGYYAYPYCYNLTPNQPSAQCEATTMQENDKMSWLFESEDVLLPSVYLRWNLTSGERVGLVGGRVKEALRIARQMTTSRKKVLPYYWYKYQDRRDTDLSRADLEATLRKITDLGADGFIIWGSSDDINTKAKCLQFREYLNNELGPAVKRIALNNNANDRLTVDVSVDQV
# [2] = target: T1, Bee Hyaluronidase; test: SPR; XPR repeat 2
# [3] = target: T1, Bee Hyaluronidase; test: SPR; XPR repeat 2
# [4] = target: T1, Bee Hyaluronidase; test: SPR
# [5] = target: T1, Bee Hyaluronidase; test: SPR
Binder,koff [1],koff [2],Kd [3],koff [4],Kd [5]
B1,0.000115 s⁻¹,0.000133 s⁻¹,0.962 nM,,
B2,,,,0.00111 s⁻¹ and 0.0013 s⁻¹ and 0.00116 s⁻¹,10.4 nM and 15.6 nM
